Laboratory results from publication PMC2898018.

Target: His-tagged WRN (E84A) (human) (UniProt Q14191)
Chain of UniProt Q14191 (Q14191 whole entry E84A): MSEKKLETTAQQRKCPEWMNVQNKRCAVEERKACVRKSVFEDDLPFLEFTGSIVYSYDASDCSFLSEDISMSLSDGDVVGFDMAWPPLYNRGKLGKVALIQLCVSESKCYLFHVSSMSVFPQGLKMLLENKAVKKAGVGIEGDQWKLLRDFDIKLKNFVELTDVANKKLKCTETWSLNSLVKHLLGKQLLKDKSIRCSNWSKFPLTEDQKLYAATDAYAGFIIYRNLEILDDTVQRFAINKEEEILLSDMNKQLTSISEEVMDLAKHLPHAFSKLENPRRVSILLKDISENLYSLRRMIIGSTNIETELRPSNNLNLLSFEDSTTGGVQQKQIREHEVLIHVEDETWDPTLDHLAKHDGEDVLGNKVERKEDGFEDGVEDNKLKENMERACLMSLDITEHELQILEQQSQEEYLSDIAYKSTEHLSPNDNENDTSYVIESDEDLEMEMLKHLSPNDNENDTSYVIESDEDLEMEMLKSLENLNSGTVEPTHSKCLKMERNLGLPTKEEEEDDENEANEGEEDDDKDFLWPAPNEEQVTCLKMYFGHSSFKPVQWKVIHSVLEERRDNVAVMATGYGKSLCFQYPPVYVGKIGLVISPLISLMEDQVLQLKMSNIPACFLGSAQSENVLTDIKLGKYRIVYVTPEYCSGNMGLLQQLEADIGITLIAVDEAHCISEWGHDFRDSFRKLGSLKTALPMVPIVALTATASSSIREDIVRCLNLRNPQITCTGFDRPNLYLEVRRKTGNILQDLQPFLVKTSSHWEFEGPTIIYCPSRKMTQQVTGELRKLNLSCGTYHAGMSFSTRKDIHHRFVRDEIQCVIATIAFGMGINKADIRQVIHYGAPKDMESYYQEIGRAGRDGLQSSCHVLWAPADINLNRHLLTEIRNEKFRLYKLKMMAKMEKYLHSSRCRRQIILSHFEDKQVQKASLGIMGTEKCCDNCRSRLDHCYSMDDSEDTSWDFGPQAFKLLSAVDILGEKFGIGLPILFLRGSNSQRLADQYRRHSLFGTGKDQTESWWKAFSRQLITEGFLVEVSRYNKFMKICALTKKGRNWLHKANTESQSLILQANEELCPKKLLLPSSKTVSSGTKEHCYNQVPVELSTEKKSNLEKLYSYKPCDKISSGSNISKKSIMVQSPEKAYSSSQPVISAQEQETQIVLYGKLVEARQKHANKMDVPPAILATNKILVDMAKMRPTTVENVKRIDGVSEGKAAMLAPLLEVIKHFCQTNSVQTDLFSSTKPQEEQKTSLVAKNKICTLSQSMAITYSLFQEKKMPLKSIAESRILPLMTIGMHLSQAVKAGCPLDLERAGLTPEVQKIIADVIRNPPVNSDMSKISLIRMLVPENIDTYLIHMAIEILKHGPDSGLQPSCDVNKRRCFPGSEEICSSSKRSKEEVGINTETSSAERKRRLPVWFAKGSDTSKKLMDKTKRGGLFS

- unwinding of the telomeric D-loop substrate by WRN (E84A) (3.3 nM) preincubated with DNA-PKcs (16.7 nM), native gel; 3.3% unwound in the absence of DNA-PKcs: 66%
Substance: DNA-PKcs, the catalytic subunit of DNA-PK (from UniProt P78527 1-4128) (enzyme)
